Where two headings read alike, the source gives them in different places. Ends that are not written are not given here. * marks the point of attachment. Azidoacetyl = [N-]=[N+]=NCC(=O)*
B1: Compound No. 1270696, XLYENKPRKPYIL peptide conjugated to 20-mer MOE oligonucleotide with 3'-Cy3 (peptide)
peptide: KLYENKPRKPYIL
modifications: not fully specified (residue 1)
B2: Compound No. 1270697, … peptide conjugated to 20-mer MOE oligonucleotide with 3'-Cy3 (peptide)
peptide: K(Azidoacetyl)LYENKPKKPYIL
modifications: not fully specified; printed as 2-azido-acetyl-KLYENKPKKPYIL; also: azide joined via triazolo-BCN carbamate/6-aminohexanol linker to 5' end of 20-mer MOE oligonucleotide CCAGGCTGGTTATGACTCAG (uniform MOE, phosphodiester, 3'-Cy3)
B3: Compound 17-AE-9199, Cy3-labeled [SO5P]LYEN[azido-acetyl-K]PRRPYIL peptide (peptide)
peptide: LYENXPRRPYIL
modifications: not fully specified; position 1 is SO5P (5-oxoproline); internal lysine (LYEN-K) carries the azido-acetyl group joined to Cy3-BCN reagent (Cy3 label)
B4: Compound No. 1252444, XAGSIKPPPAGSSPGLYENKPRRPYIL peptide conjugated to 20-mer MOE oligonucleotide with 3'-Cy3 (peptide)
peptide: KAGSIKPPPAGSSPGLYENKPRRPYIL
modifications: not fully specified (residue 1); also: X side chain clicked via BCN (triazole) and 6-aminohexanol linker to 5' end of oligonucleotide CCAGGCTGGTTATGACTCAG (MOE, 3'-Cy3)
B5: Compound No. 1162756, extended neurotensin (eNT, XPPPAGSSPGLYENKPRRPYIL) conjugated to 20-mer MOE oligonucleotide with 3'-Cy3 (peptide)
peptide: KPPPAGSSPGLYENKPRRPYIL
modifications: not fully specified (residue 1); also: X side chain clicked via BCN (triazole) and 6-aminohexanol linker to 5' end of oligonucleotide CCAGGCTGGTTATGACTCAG (MOE, 3'-Cy3)
B6: Compound 17-AH-1492, Cy3-labeled extended neurotensin (eNT, …) (peptide)
peptide: KPPPAGSSPGLYENKPRRPYIL
modifications: not fully specified (residue 1); also: Cy3 label attached by BCN click to the azide
B7: Compound No. 1215812, CPPPAGSSPGLYENKPRRPYIL peptide conjugated by a maleimide linker to 20-mer MOE oligonucleotide with 3'-Cy3 (peptide)
peptide: CPPPAGSSPGLYENKPRRPYIL
modifications: not fully specified
B8: 1162756 duplex (Compound No. 1162756 complexed to complementary MOE oligonucleotide …) (peptide)
peptide: KPPPAGSSPGLYENKPRRPYIL
modifications: not fully specified (residue 1); also: oligonucleotide hybridized to complementary MOE strand CTGAGTCATAACCAGCCTGG (duplex)
B9: Compound No. 1091165, [SO5P]-LYEN[azido-acetyl-K]PRRPYIL peptide conjugated to 20-mer MOE oligonucleotide with 3'-Cy3 (peptide)
peptide: LYENXPRRPYIL
modifications: not fully specified; position 1 is SO5P (5-oxoproline); internal lysine (LYEN-K) side chain azido-acetyl joined via triazolo-BCN carbamate / 6-aminohexanol linker to 5' end of … (SEQ ID NO 2, uniform MOE, phosphodiester, 3'-Cy3)
B10: Compound No. 1270698, XLYENKPKRPYIL peptide conjugated to 20-mer MOE oligonucleotide with 3'-Cy3 (peptide)
peptide: XLYENKPKRPYIL
modifications: not fully specified; X at position 1 is 2-azido-acetyl lysine, joined via triazolo-BCN carbamate / 6-aminohexanol linker to 5' end of … (SEQ ID NO 2, uniform MOE, phosphodiester, 3'-Cy3)
B11: Compound No. 18-AJ9998, Morpholino oligomer-neurotensin conjugate 11 (Cy3 labeled) (peptide)
peptide: XLYENKPRRPYIL
modifications: X at position 1 is 2-azido-acetyl lysine joined via BCN to a Cy3-labeled phosphorodiamidate morpholino oligomer
B12: Compound No. 1252443, XPAPSGPSPGLYENKPRRPYIL peptide conjugated to 20-mer MOE oligonucleotide with 3'-Cy3 (peptide)
peptide: KPAPSGPSPGLYENKPRRPYIL
modifications: not fully specified (residue 1); also: X side chain clicked via BCN (triazole) and 6-aminohexanol linker to 5' end of oligonucleotide CCAGGCTGGTTATGACTCAG (MOE, 3'-Cy3)
B13: Compound No. 1252445, XAGMSGASAGLYENKPRRPYIL peptide conjugated to 20-mer MOE oligonucleotide with 3'-Cy3 (peptide)
peptide: KAGMSGASAGLYENKPRRPYIL
modifications: not fully specified (residue 1); also: X side chain clicked via BCN (triazole) and 6-aminohexanol linker to 5' end of oligonucleotide CCAGGCTGGTTATGACTCAG (MOE, 3'-Cy3)

Columns and labels:
Assay in all cases: cell-based or functional assay
[1] = target: T1, human sortilin stably expressed on HEK 293 cells (HEK-SORT1 cells) (human, UniProt Q99523 78-831)
T1 sequence (looked up): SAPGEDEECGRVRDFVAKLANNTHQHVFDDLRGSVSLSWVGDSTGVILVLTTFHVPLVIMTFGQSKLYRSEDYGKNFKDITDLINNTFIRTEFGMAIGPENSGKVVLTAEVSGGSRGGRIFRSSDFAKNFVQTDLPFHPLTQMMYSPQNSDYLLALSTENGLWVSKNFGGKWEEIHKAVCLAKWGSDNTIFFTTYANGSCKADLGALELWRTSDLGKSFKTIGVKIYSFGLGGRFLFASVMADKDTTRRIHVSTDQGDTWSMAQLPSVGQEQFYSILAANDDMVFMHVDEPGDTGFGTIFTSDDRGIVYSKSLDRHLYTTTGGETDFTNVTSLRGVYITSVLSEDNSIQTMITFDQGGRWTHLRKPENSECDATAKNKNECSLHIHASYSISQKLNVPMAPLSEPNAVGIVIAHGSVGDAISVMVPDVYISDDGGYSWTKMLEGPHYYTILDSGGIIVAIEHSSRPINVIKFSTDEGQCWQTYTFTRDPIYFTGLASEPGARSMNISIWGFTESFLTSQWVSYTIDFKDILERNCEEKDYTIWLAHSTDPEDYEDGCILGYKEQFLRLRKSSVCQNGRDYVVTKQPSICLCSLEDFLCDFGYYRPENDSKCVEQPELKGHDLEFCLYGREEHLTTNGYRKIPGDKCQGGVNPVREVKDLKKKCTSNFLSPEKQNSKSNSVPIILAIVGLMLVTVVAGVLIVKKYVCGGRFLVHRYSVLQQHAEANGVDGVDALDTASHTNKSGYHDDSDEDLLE

[2] = target: T1, human sortilin stably expressed on HEK …; remark: listed apart in the source
[3] = target: T1, human sortilin stably expressed on HEK …; remark: listed apart in the source
[4] = target: T1, human sortilin stably expressed on HEK …; remark: listed apart in the source
[5] = target: T1, human sortilin stably expressed on HEK …; remark: listed apart in the source
[6] = target: T1, human sortilin stably expressed on HEK …; remark: listed apart in the source

Binder	Mean Fluorescence Intensity (MFI), uptake 37C-4C, at 12 nM [2] [MFI]	Mean Fluorescence Intensity (MFI), uptake 37C-4C, at 37 nM [2] [MFI]	Mean Fluorescence Intensity (MFI), uptake 37C-4C, at 111 nM [2] [MFI]	Mean Fluorescence Intensity (MFI), uptake 37C-4C, at 333 nM [2] [MFI]	Mean Fluorescence Intensity (MFI), uptake 37C-4C, at 1000 nM [2] [MFI]	Mean Fluorescence Intensity (MFI), uptake 37C-4C, at 7 nM [3] [MFI]	Mean Fluorescence Intensity (MFI), uptake 37C-4C, at 22 nM [3] [MFI]	Mean Fluorescence Intensity (MFI), uptake 37C-4C, at 76 nM [3] [MFI]	Mean Fluorescence Intensity (MFI), uptake 37C-4C, at 260 nM [3] [MFI]	Mean Fluorescence Intensity (MFI), uptake 37C-4C, at 882 nM [3] [MFI]	Mean Fluorescence Intensity (MFI), uptake 37C-4C, at 3000 nM [3] [MFI]	also measured
B1												Mean Fluorescence Intensity (MFI), uptake 37C-4C, at 12 nM [1]: 43 MFI; Mean Fluorescence Intensity (MFI), uptake 37C-4C, at 37 nM [1]: 61 MFI; Mean Fluorescence Intensity (MFI), uptake 37C-4C, at 111 nM [1]: 138 MFI; Mean Fluorescence Intensity (MFI), uptake 37C-4C, at 333 nM [1]: 312 MFI; Mean Fluorescence Intensity (MFI), uptake 37C-4C, at 1000 nM [1]: 1100 MFI
B2												Mean Fluorescence Intensity (MFI), uptake 37C-4C, at 12 nM [1]: 39 MFI; Mean Fluorescence Intensity (MFI), uptake 37C-4C, at 37 nM [1]: 51 MFI; Mean Fluorescence Intensity (MFI), uptake 37C-4C, at 111 nM [1]: 86 MFI; Mean Fluorescence Intensity (MFI), uptake 37C-4C, at 333 nM [1]: 185 MFI; Mean Fluorescence Intensity (MFI), uptake 37C-4C, at 1000 nM [1]: 474 MFI
B3	174	378	825	1090	1220							
B4						90	208	609	1530	2510	3390	
B5	67	119	246	812	1390	51	122	309	937	2070	3380	Mean Fluorescence Intensity (MFI), uptake 37C-4C, at 12 nM [4]: 61 MFI; Mean Fluorescence Intensity (MFI), uptake 37C-4C, at 37 nM [4]: 124 MFI; Mean Fluorescence Intensity (MFI), uptake 37C-4C, at 111 nM [4]: 364 MFI; Mean Fluorescence Intensity (MFI), uptake 37C-4C, at 333 nM [4]: 839 MFI; Mean Fluorescence Intensity (MFI), uptake 37C-4C, at 1000 nM [4]: 1560 MFI; Mean Fluorescence Intensity (MFI), uptake 37C-4C, at 7 nM [5]: 53 MFI; Mean Fluorescence Intensity (MFI), uptake 37C-4C, at 22 nM [5]: 102 MFI; Mean Fluorescence Intensity (MFI), uptake 37C-4C, at 76 nM [5]: 259 MFI; Mean Fluorescence Intensity (MFI), uptake 37C-4C, at 260 nM [5]: 817 MFI; Mean Fluorescence Intensity (MFI), uptake 37C-4C, at 882 nM [5]: 2100 MFI; Mean Fluorescence Intensity (MFI), uptake 37C-4C, at 3000 nM [5]: 4220 MFI
B6	167	390	724	1030	1260	84	266	593	869	1180	1440	Mean Fluorescence Intensity (MFI), uptake 37C-4C, at 12 nM [4]: 108 MFI; Mean Fluorescence Intensity (MFI), uptake 37C-4C, at 37 nM [4]: 334 MFI; Mean Fluorescence Intensity (MFI), uptake 37C-4C, at 111 nM [4]: 763 MFI; Mean Fluorescence Intensity (MFI), uptake 37C-4C, at 333 nM [4]: 1100 MFI; Mean Fluorescence Intensity (MFI), uptake 37C-4C, at 1000 nM [4]: 1360 MFI
B7												Mean Fluorescence Intensity (MFI), uptake 37C-4C, at 7 nM [5]: 47 MFI; Mean Fluorescence Intensity (MFI), uptake 37C-4C, at 22 nM [5]: 69 MFI; Mean Fluorescence Intensity (MFI), uptake 37C-4C, at 76 nM [5]: 205 MFI; Mean Fluorescence Intensity (MFI), uptake 37C-4C, at 260 nM [5]: 675 MFI; Mean Fluorescence Intensity (MFI), uptake 37C-4C, at 882 nM [5]: 1810 MFI; Mean Fluorescence Intensity (MFI), uptake 37C-4C, at 3000 nM [5]: 3140 MFI
B8												Mean Fluorescence Intensity (MFI), uptake 37C-4C, at 12 nM [4]: 41 MFI; Mean Fluorescence Intensity (MFI), uptake 37C-4C, at 37 nM [4]: 52 MFI; Mean Fluorescence Intensity (MFI), uptake 37C-4C, at 111 nM [4]: 71 MFI; Mean Fluorescence Intensity (MFI), uptake 37C-4C, at 333 nM [4]: 130 MFI; Mean Fluorescence Intensity (MFI), uptake 37C-4C, at 1000 nM [4]: 278 MFI
B9	45	53	60	73	97							
B10												Mean Fluorescence Intensity (MFI), uptake 37C-4C, at 12 nM [1]: 35 MFI; Mean Fluorescence Intensity (MFI), uptake 37C-4C, at 37 nM [1]: 48 MFI; Mean Fluorescence Intensity (MFI), uptake 37C-4C, at 111 nM [1]: 78 MFI; Mean Fluorescence Intensity (MFI), uptake 37C-4C, at 333 nM [1]: 155 MFI; Mean Fluorescence Intensity (MFI), uptake 37C-4C, at 1000 nM [1]: 394 MFI
B11												Mean Fluorescence Intensity (MFI), uptake 37C-4C, at 12 nM [6]: 70 MFI; Mean Fluorescence Intensity (MFI), uptake 37C-4C, at 37 nM [6]: 75 MFI; Mean Fluorescence Intensity (MFI), uptake 37C-4C, at 111 nM [6]: 86 MFI; Mean Fluorescence Intensity (MFI), uptake 37C-4C, at 333 nM [6]: 138 MFI; Mean Fluorescence Intensity (MFI), uptake 37C-4C, at 1000 nM [6]: 267 MFI; Mean Fluorescence Intensity (MFI), uptake 37C-4C, at 3000 nM [6]: 631 MFI
B12						53	130	413	1230	2430	3390	
B13						55	85	306	868	1950	2880	

From patent publication US20230338555A1 (IONIS PHARMACEUTICALS, published 2023)
